B1: SH2 domain-containing protein 1A (Homo sapiens), O60880 (parent)
chain: MDAVAVYHGKISRETGEKLLLATGLDGSYLLRDSESVPGVYCLCVLYHGYIYTYRVSQTETGSWSAETAPGVHKRYFRKIKNLISAFQKPDQGIVIPLQYPVEKKSSARSTQGTTGIREDPDVCLKAP
partner: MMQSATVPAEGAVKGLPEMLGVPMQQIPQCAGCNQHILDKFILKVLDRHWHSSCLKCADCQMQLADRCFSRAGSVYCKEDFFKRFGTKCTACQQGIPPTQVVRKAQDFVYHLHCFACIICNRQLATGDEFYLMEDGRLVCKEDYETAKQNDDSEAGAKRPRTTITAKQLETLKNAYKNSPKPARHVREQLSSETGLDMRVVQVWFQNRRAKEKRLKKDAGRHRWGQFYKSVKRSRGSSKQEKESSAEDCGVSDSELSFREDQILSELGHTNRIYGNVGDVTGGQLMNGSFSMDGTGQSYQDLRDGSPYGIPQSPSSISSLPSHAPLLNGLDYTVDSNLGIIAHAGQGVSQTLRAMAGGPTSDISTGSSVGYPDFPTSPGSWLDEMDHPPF
B2: U4/U6 small nuclear ribonucleoprotein Prp31 (Homo sapiens), Q8WWY3 (parent)
chain: MSLADELLADLEEAAEEEEGGSYGEEEEEPAIEDVQEETQLDLSGDSVKTIAKLWDSKMFAEIMMKIEEYISKQAKASEVMGPVEAAPEYRVIVDANNLTVEIENELNIIHKFIRDKYSKRFPELESLVPNALDYIRTVKELGNSLDKCKNNENLQQILTNATIMVVSVTASTTQGQQLSEEELERLEEACDMALELNASKHRIYEYVESRMSFIAPNLSIIIGASTAAKIMGVAGGLTNLSKMPACNIMLLGAQRKTLSGFSSTSVLPHTGYIYHSDIVQSLPPDLRRKAARLVAAKCTLAARVDSFHESTEGKVGYELKDEIERKFDKWQEPPPVKQVKPLPAPLDGQRKKRGGRRYRKMKERLGLTEIRKQANRMSFGEIEEDAYQEDLGFSLGHLGKSGSGRVRQTQVNEATKARISKTLQRTLQKQSVVYGGKSTIRDRSSGTASSVAFTPLQGLEIVNPQAAEKKVAEANQKYFSSMAEFLKVKGEKSGLMST
partner: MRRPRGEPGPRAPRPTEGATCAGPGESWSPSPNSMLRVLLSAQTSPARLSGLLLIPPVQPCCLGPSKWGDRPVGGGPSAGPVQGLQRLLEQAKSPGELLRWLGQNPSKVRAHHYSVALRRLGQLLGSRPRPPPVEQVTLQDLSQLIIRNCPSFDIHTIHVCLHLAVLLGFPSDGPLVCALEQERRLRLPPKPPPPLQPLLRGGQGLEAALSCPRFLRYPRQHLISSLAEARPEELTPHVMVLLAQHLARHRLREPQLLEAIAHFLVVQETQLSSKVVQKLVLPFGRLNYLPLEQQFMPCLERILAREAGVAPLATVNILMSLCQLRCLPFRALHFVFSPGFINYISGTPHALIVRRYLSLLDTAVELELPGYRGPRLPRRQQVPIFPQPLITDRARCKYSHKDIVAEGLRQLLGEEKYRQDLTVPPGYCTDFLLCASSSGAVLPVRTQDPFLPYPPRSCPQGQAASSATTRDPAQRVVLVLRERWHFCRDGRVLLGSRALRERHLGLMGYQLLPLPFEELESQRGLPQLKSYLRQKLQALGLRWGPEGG
B3: ATP synthase mitochondrial F1 complex assembly factor 2 (Homo sapiens), Q8N5M1 (parent)
chain: MWRSCLRLRDGGRRLLNRPAGGPSASMSPGPTIPSPARAYAPPTERKRFYQNVSITQGEGGFEINLDHRKLKTPQAKLFTVPSEALAIAVATEWDSQQDTIKYYTMHLTTLCNTSLDNPTQRNKDQLIRAAVKFLDTDTICYRVEEPETLVELQRNEWDPIIEWAEKRYGVEISSSTSIMGPSIPAKTREVLVSHLASYNTWALQGIEFVAAQLKSMVLTLGLIDLRLTVEQAVLLSRLEEEYQIQKWGNIEWAHDYELQELRARTAAGTLFIHLCSESTTVKHKLLKE
partner: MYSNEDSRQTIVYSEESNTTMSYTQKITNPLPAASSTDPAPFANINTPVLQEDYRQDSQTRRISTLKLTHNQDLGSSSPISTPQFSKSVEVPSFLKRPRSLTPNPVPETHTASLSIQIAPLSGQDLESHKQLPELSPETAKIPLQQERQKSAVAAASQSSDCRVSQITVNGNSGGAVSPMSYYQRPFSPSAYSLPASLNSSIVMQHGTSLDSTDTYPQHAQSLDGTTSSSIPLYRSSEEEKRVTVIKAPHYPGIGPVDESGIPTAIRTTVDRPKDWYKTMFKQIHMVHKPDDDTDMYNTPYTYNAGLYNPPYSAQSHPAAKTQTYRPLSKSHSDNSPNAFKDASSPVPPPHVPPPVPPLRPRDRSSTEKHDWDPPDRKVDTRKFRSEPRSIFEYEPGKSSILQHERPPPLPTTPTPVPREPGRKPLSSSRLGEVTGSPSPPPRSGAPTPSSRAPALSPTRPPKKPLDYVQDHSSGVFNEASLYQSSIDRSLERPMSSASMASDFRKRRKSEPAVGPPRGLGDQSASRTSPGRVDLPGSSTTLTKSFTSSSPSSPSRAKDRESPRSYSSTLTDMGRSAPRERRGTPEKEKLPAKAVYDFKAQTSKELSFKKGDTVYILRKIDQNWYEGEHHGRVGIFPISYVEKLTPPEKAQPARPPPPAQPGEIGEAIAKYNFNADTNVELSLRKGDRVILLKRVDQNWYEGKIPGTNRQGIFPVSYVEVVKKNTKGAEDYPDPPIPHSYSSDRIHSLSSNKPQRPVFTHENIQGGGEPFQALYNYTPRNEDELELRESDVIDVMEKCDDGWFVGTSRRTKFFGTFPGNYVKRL
B4: Polyunsaturated fatty acid 5-lipoxygenase (Homo sapiens), P09917 (parent)
chain: MPSYTVTVATGSQWFAGTDDYIYLSLVGSAGCSEKHLLDKPFYNDFERGAVDSYDVTVDEELGEIQLVRIEKRKYWLNDDWYLKYITLKTPHGDYIEFPCYRWITGDVEVVLRDGRAKLARDDQIHILKQHRRKELETRQKQYRWMEWNPGFPLSIDAKCHKDLPRDIQFDSEKGVDFVLNYSKAMENLFINRFMHMFQSSWNDFADFEKIFVKISNTISERVMNHWQEDLMFGYQFLNGCNPVLIRRCTELPEKLPVTTEMVECSLERQLSLEQEVQQGNIFIVDFELLDGIDANKTDPCTLQFLAAPICLLYKNLANKIVPIAIQLNQIPGDENPIFLPSDAKYDWLLAKIWVRSSDFHVHQTITHLLRTHLVSEVFGIAMYRQLPAVHPIFKLLVAHVRFTIAINTKAREQLICECGLFDKANATGGGGHVQMVQRAMKDLTYASLCFPEAIKARGMESKEDIPYYFYRDDGLLVWEAIRTFTAEVVDIYYEGDQVVEEDPELQDFVNDVYVYGMRGRKSSGFPKSVKSREQLSEYLTVVIFTASAQHAAVNFGQYDWCSWIPNAPPTMRAPPPTAKGVVTIEQIVDTLPDRGRSCWHLGAVWALSQFQENELFLGMYPEEHFIEKPVKEAMARFRKNLEAIVSVIAERNKKKQLPYYYLSPDRIPNSVAI
partner: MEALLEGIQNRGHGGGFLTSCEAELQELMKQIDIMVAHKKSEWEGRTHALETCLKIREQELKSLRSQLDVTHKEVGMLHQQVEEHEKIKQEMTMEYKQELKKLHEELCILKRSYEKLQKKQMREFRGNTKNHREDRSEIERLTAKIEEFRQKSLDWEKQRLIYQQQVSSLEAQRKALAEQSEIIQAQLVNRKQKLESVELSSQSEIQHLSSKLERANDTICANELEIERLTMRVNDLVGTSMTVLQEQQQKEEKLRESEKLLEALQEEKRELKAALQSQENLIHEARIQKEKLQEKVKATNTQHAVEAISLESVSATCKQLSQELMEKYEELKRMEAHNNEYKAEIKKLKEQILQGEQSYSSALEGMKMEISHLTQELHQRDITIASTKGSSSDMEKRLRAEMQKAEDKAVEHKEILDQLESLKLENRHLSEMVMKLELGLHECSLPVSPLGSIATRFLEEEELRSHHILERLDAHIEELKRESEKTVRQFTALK
B5: Complement factor H-related protein 5 (Homo sapiens), Q9BXR6 (parent)
chain: MLLLFSVILISWVSTVGGEGTLCDFPKIHHGFLYDEEDYNPFSQVPTGEVFYYSCEYNFVSPSKSFWTRITCTEEGWSPTPKCLRMCSFPFVKNGHSESSGLIHLEGDTVQIICNTGYSLQNNEKNISCVERGWSTPPICSFTKGECHVPILEANVDAQPKKESYKVGDVLKFSCRKNLIRVGSDSVQCYQFGWSPNFPTCKGQVRSCGPPPQLSNGEVKEIRKEEYGHNEVVEYDCNPNFIINGPKKIQCVDGEWTTLPTCVEQVKTCGYIPELEYGYVQPSVPPYQHGVSVEVNCRNEYAMIGNNMITCINGIWTELPMCVATHQLKRCKIAGVNIKTLLKLSGKEFNHNSRIRYRCSDIFRYRHSVCINGKWNPEVDCTEKREQFCPPPPQIPNAQNMTTTVNYQDGEKVAVLCKENYLLPEAKEIVCKDGRWQSLPRCVESTAYCGPPPSINNGDTTSFPLSVYPPGSTVTYRCQSFYKLQGSVTVTCRNKQWSEPPRCLDPCVVSEENMNKNNIQLKWRNDGKLYAKTGDAVEFQCKFPHKAMISSPPFRAICQEGKFEYPICE
partner: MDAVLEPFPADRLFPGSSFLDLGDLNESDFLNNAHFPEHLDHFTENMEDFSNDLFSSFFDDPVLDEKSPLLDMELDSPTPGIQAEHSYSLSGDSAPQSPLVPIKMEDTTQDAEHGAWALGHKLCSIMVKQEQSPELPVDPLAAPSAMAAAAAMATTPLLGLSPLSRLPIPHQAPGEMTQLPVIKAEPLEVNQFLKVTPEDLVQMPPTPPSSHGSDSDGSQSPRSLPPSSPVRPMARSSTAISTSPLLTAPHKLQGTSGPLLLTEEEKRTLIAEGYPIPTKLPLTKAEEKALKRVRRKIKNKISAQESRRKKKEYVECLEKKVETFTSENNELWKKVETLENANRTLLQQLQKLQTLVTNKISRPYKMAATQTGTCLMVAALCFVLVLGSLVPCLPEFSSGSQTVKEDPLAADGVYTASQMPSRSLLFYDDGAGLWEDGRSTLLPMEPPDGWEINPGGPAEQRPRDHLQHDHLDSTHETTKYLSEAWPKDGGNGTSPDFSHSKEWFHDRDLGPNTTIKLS

Variants of: B1
Conditions: with lhx4_human LHX4, Q969G2
MDAVAVYHGKISRETGEKLLLATGLDGSYLLRDSESVPGVYCLCVLYHGYIYTYRVSQTETGSWSAETAPGVHKRYFRKIKNLISAFQKPDQDIVIPLQYPVEKKSSARSTQGTTGIREDPDVCLKAP [G93D] was tested, and the “effect of a mutation on the interaction” value was “with no effect”.
With MDAVAVYHGKISRETGEKLLLATGLDGSYLLRDSESVPGVYCLCVLYHGYIYTYRVSQTETGSWSAETAPGVHKRYFRKIKNLISAFQKPDQGIVIPLQYLVEKKSSARSTQGTTGIREDPDVCLKAP [P101L] the “effect of a mutation on the interaction” value was “with no effect”.

Variants of: B2
Conditions: with fastk_human FASTK
MSLADELLADLEEAAEEEEGGSYGEEEEEPAIEDVQEETQLDLSGDSVKTIAKLWDSKMFAEIMMKIEEYISKQAKASEVMGPVEAAPEYRVIVDANNLTVEIENEVNIIHKFIRDKYSKRFPELESLVPNALDYIRTVKELGNSLDKCKNNENLQQILTNATIMVVSVTASTTQGQQLSEEELERLEEACDMALELNASKHRIYEYVESRMSFIAPNLSIIIGASTAAKIMGVAGGLTNLSKMPACNIMLLGAQRKTLSGFSSTSVLPHTGYIYHSDIVQSLPPDLRRKAARLVAAKCTLAARVDSFHESTEGKVGYELKDEIERKFDKWQEPPPVKQVKPLPAPLDGQRKKRGGRRYRKMKERLGLTEIRKQANRMSFGEIEEDAYQEDLGFSLGHLGKSGSGRVRQTQVNEATKARISKTLQRTLQKQSVVYGGKSTIRDRSSGTASSVAFTPLQGLEIVNPQAAEKKVAEANQKYFSSMAEFLKVKGEKSGLMST [L107V] was tested, and the “effect of a mutation on the interaction” value was “with no effect”.

Variants of: B3
Conditions: with SORBS2, O94875-10
For MWRSCLRLRDGGRRLLNRPAGGPSASMSPGPTIPSPARAYAPPTERKRFYQNVSITQGEGGFEINLDHRKLKTPQAKLFTVPSEALAIAVATERDSQQDTIKYYTMHLTTLCNTSLDNPTQRNKDQLIRAAVKFLDTDTICYRVEEPETLVELQRNEWDPIIEWAEKRYGVEISSSTSIMGPSIPAKTREVLVSHLASYNTWALQGIEFVAAQLKSMVLTLGLIDLRLTVEQAVLLSRLEEEYQIQKWGNIEWAHDYELQELRARTAAGTLFIHLCSESTTVKHKLLKE [W94R], the “effect of a mutation on the interaction” value was “disrupting interaction strength”.

Variants of: B4
Conditions: with CEP63, Q96MT8-3
E254K was tested, and the “effect of a mutation on the interaction” value was “with no effect”.

Variants of: B5
Conditions: with cr3l1_human CREB3L1, Q96BA8
In the case of MLLLFSVILISWVSTVGGEGTLCDFPKIHHGFLYDEEDYNPFSQVSTGEVFYYSCEYNFVSPSKSFWTRITCTEEGWSPTPKCLRMCSFPFVKNGHSESSGLIHLEGDTVQIICNTGYSLQNNEKNISCVERGWSTPPICSFTKGECHVPILEANVDAQPKKESYKVGDVLKFSCRKNLIRVGSDSVQCYQFGWSPNFPTCKGQVRSCGPPPQLSNGEVKEIRKEEYGHNEVVEYDCNPNFIINGPKKIQCVDGEWTTLPTCVEQVKTCGYIPELEYGYVQPSVPPYQHGVSVEVNCRNEYAMIGNNMITCINGIWTELPMCVATHQLKRCKIAGVNIKTLLKLSGKEFNHNSRIRYRCSDIFRYRHSVCINGKWNPEVDCTEKREQFCPPPPQIPNAQNMTTTVNYQDGEKVAVLCKENYLLPEAKEIVCKDGRWQSLPRCVESTAYCGPPPSINNGDTTSFPLSVYPPGSTVTYRCQSFYKLQGSVTVTCRNKQWSEPPRCLDPCVVSEENMNKNNIQLKWRNDGKLYAKTGDAVEFQCKFPHKAMISSPPFRAICQEGKFEYPICE [P46S], the “effect of a mutation on the interaction” value is reported as “with no effect”.
